# Experimental data published in patent publication US20260008817A1, “CYCLIC PEPTIDE OR SALT THEREOF, AND USES THEREOF” (FUJIFILM Corporation, priority 2023, published 2026).
# Legend:
# [1] = biological target: T1, Recombinant Human FGFR1 alpha (IIIc) Fc Chimera Protein (Homo sapiens, UniProt P11362); test: SPR binding affinity of chemically synthesized cyclic peptide to immobilized FGFR; conditions: SPR binding amount at 10 nmol/L cyclic peptide, 25° C.; chemically synthesized product
# T1 construct: purchased R&D systems 658-FR-050
# Procedure: The binding affinity of the cyclic peptide to FGFR was evaluated using a surface plasmon resonance (SPR) method.
# (§1) The binding affinity of the chemically synthesized cyclic peptide to FGFR was evaluated by the following procedure.
# A CM5 sensor chip (Cytiva, 29149603) was set in Biacore-T200 (manufactured by Cytiva) which is a surface plasmon resonance device, and an HBS-EP buffer (Cytiva, BR100826) was added as a running buffer at a flow rate of 10 μL/min to equilibrate the flow channel. Next, 70 μL of a mixed aqueous solution of 0.2 mol/L 1-(3-dimethylaminopropyl)-3-ethylcarbodiimide (EDC) and 0.05 mol/L N-hydroxysuccinimide (NHS) was added to activate the sensor chip. Then, Recombinant Human FGFR1 alpha (IIIc) Fc Chimera Protein CF (R&D systems, 658-FR-050) prepared at 50 nmol/L in an Acetate 4.5 buffer (Cytiva, BR100350) was added thereto to perform immobilization at about 5000 RU. Thereafter, the blocking treatment was performed with an ethanolamine solution. In addition, in another flow channel of the same sensor chip, blocking treatment was performed immediately after activation without immobilizing FGFR.
# A cyclic peptide diluted to 10 nmol/L using HBS-EP was added to each flow channel of the FGFR-immobilized sensor chip produced above at 25° C. for 10 minutes, then HBS-EP was allowed to flow as a running buffer for 30 minutes, and the binding of the cyclic peptide to FGFR was measured. Thereafter, a regeneration treatment of removing the bound cyclic peptide was performed by repeating the flow of a regeneration liquid in which sodium chloride powder was dissolved in Glysine 1.5 (Cytiva, BR100354) to a final concentration of 0.15 mol/L for 1 minute in each flow channel twice. The binding amount of the cyclic peptide was evaluated from the difference between the measured value of Biacore-T200 in the flow channel in which FGFR was immobilized and the measured value of Biacore-T200 in the flow channel in which FGFR was not immobilised, in a case where a 10 nmol/L cyclic peptide was allowed to flow.
# The binding amount of the cyclic peptide evaluated above was normalized to the binding amount of the cyclic peptide molecules per one molecule of FGFR using the molecular weights of the cyclic peptide and FGFR, and the binding affinity to FGFR was evaluated according to the following evaluation criteria. The evaluation result preferably satisfies the evaluation criteria A, B, or C.
# • A: The binding amount is 0.7 molecules of the cyclic peptide/one molecule of FGFR or more. • B: The binding amount is 0.5 molecules of the cyclic peptide/one molecule of FGFR or more and less than 0.7 molecules of cyclic peptide/one molecule of FGFR. • C: The binding amount is 0.1 molecules of cyclic peptide/one molecule of FGFR or more and less than 0.5 molecules of cyclic peptide/one molecule of FGFR. • D: The binding amount is less than 0.1 molecules of the cyclic peptide/one molecule of FGFR.
# [2] = biological target: T2, FGFR1 Protein, Human, Recombinant (His Tag) (Homo sapiens, UniProt P11362); test: SPR FGFR versatility, FGFR1 on immobilized cyclic peptide; format: binding; conditions: 1 μmol/L FGFR, 25° C.
# T2 construct: His tag; purchased Sino Biological 10616-H08H
# T2 sequence (P11362 22-285 isoform P11362-14 limits assumed): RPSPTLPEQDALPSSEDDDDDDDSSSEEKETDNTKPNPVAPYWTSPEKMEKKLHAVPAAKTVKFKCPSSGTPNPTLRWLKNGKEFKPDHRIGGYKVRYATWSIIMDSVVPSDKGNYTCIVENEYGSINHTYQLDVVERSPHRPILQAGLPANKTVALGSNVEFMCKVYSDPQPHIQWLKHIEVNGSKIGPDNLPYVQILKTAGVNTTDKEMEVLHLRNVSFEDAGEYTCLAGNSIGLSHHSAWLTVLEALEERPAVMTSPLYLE
# Procedure: The binding of the cyclic peptide to various types of FGFRs was evaluated using a surface plasmon resonance (SPR) method.
# as §1
# A CM5 sensor chip (Cytiva, 29149603) was set in Biacore-T200 (manufactured by Cytiva) which is a surface plasmon resonance device, and an HBS-EP buffer (Cytiva, BR100826) was added as a running buffer at a flow rate of 10 μL/min to equilibrate the flow channel. Next, 70 μL of a mixed aqueous solution of 0.2 mol/L 1-(3-dimethylaminopropyl)-3-ethylcarbodiimide (EDC) and 0.05 mol/L N-hydroxysuccinimide (NHS) was added to activate the sensor chip. Then, a cyclic peptide prepared to 2 mg/mL in HBS-EP buffer was added thereto to perform immobilization at about 200 RU. […]
# After various FGFRs (FGFR1 Protein, Human, Recombinant (His Tag) (Sino Biological, 10616-H08H), FGFR3 Protein, Human, Recombinant (ECD, His Tag) (Sino Biological, 16044-H08H), FGFR4 Protein, Human, Recombinant (His Tag) (Sino Biological, 10538-H08H)) diluted with HBS-EP to 1 μmol/L at 25° C. was added to each flow channel of the cyclic peptide-immobilized sensor chip prepared above, for 10 minutes, HBS-EP was allowed to flow as a running buffer for 30 minutes, and the binding of various FGFRs to the cyclic peptide was measured. […]
# T1 sequence (P11362 with tags, fused parts or gaps limits assumed): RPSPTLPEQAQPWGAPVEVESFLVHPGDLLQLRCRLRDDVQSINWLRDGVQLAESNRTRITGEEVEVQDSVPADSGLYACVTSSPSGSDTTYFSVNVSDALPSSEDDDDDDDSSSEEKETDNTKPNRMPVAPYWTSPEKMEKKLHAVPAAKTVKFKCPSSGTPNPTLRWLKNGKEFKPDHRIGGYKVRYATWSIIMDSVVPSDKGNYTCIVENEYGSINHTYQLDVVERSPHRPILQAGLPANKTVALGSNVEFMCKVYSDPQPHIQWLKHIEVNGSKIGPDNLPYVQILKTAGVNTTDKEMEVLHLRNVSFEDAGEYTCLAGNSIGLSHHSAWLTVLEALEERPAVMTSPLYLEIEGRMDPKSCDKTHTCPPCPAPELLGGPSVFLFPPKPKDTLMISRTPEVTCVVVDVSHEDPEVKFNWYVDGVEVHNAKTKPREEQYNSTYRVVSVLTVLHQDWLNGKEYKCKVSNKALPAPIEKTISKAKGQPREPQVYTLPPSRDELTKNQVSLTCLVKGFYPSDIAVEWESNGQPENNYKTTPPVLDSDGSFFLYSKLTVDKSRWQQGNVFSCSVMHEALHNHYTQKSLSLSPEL
substance,measurement,setting,value
335 (ACVWTFDRHAQEISQALHKVKKK; not fully specified; Description of Artificial Sequence: Cyclic peptide) [compound 335],Evaluation result of binding affinity to FGFR,[1],A (The binding amount is 0.7 molecules of the cyclic peptide/one molecule of FGFR or more.)
same,Evaluation result of binding affinity to FGFR1,[2],A (The binding amount is 0.05 molecules of FGFR/one molecule of the cyclic peptide or more.)
